T1: human IL-33 protein (residue 112 to residue 270) (ATGen, ILC070) (human, UniProt O95760 112-270)
T1 construct: Bought protein (ATGen, ILC070); also called IL-33 (residue 112 to residue 270)
T1 sequence: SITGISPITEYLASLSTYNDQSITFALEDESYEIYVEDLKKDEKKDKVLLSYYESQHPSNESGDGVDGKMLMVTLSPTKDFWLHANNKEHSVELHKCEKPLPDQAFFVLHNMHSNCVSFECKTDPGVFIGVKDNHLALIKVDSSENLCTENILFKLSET


These binders were tested against T1, human IL-33 protein (residue 112 to …) (assay: KinExA).
Procedure: Five types of human IL-33 antibodies (A10-1C04, A23-1A05, A25-2CO2, A25-3H04 and A26-1F02) along with mouse sST2-Fc, which is a fusion protein of mouse ST2 and human IgG1 constant region, were prepared with recombinant CHO cells (WO 2015/099175).

Binder | Kd
A25-2C02 (antibody, human IgG1, lambda, V domains shown, Prepared with recombinant CHO cells; constant region said to be preferably human IgG1; also called A25-2CO2; human IL-33 antibody) VH: EVQLLESGGGLVQPGGSLRLSCAASGFTFSNYYMHWVRQAPGKGLEWVSSISARSSYIYYADSVKGRFTISRDNSKNTLYLQMNSLRAEDTAVYYCARLATRNNAFDIWGQGTLVTVSS VL: QSVLTQPPSASGTPGQRVTISCSGSSSNIGRNAVNWYQQLPGTAPKLLIYASNMRVSGVPDRFSGSKSGTSASLAISGLRSEDEADYYCWAWDDSQKVGVFGGGTKLTVLG | 0.7 pM
A23-1A05 (antibody, human IgG1, lambda, V domains shown, Prepared with recombinant CHO cells; constant region said to be preferably human IgG1; also called human IL-33 antibody; human anti-IL-33 monoclonal antibody) VH: EVQLLESGGGLVQPGGSLRLSCAASGFTFSNYYMHWVRQAPGKGLEWVSSISARSRYHYYADSVKGRFTISRDNSKNTLYLQMNSLRAEDTAVYYCARLATRHNAFDIWGQGTLVTVSS VL: QSVLTQPPSASGTPGQRVTISCSGSSSNIGNNAVSWYQQLPGTAPKLLIYASNMRVIGVPDRFSGSKSGTSASLAISGLRSEDEADYYCGAWDDSQKALVFGGGTKLTVLG | 195 pM

Second part, the binder after the results:

Kd | Binder
100 pM | A10-1C04 (antibody, human IgG1, lambda, V domains shown, Prepared with recombinant CHO cells; constant region said to be preferably human IgG1; also called human IL-33 antibody; human anti-IL-33 monoclonal antibody) VH: EVQLLESGGGLVQPGGSLRLSCAASGFTFSDYYMNWVRQAPGKGLEWVSSISRYSSYIYYADSVKGRFTISRDNSKNTLYLQMNSLRAEDTAVYYCARDIGGMDVWGQGTLVTVSS VL: QSVLTQPPSASGTPGQRVTISCTGSSSNIGAVYDVHWYQQLPGTAPKLLIYRNNQRPSGVPDRFSGSKSGTSASLAISGLRSEDEADYYCQTYDSSRWVFGGGTKLTVLG
7.7 pM | A25-3H04 (antibody, human IgG1, lambda, V domains shown, Prepared with recombinant CHO cells; constant region said to be preferably human IgG1; also called human IL-33 antibody; human anti-IL-33 monoclonal antibody) VH: EVQLLESGGGLVQPGGSLRLSCAASGFTFSRYYMHWVRQAPGKGLEWVSSISAQSSHIYYADSVEGRFTISRDNSKNTLYLQMNSLRAEDTAVYYCARLATRQNAFDIWGQGTLVTVSS VL: QSVLTQPPSASGTPGQRVTISCSGSSSNIGRNAVNWYQQLPGTAPKLLIYASNMRRSGVPDRFSGSKSGTSASLAISGLRSEDEADYYCSAWDDSQKVVVFGGGTKLTVLG
5.3 pM | A26-1F02 (antibody, human IgG1, lambda, V domains shown, Prepared with recombinant CHO cells; constant region said to be preferably human IgG1; also called human IL-33 antibody; human anti-IL-33 monoclonal antibody) VH: EVQLLESGGGLVQPGGSLRLSCAASGFTFSNYYMHWVRQAPGKGLEWVSSISARSSYLYYADSVKGRFTISRDNSKNTLYLQMNSLRAEDTAVYYCARLATRHVAFDIWGQGTLVTVSS VL: QSVLTQPPSASGTPGQRVTISCSGSSSNIGNNAVNWYQQLPGTAPKLLIYASNMRRPGVPDRFSGSKSGTSASLAISGLRSEDEADYYCEAWDDSQKAVVFGGGTKLTVLG

Reference: patent US20220372130A1 (MITSUBISHI TANABE PHARMA, published 2022)
